According to paper PMC8948467:

Tests used:
[1] = target: IgA of the IgM/IgA-enriched immunoglobulin Pentaglobin; test: non-reducing SDS-PAGE with Western blot; Pentaglobin separated by non-reducing SDS-PAGE, transferred to nitrocellulose; J-chain, IgA and IgM detected with specific antibodies and fluorophore labeled secondary antibodies
[2] = target: IgM of the IgM/IgA-enriched immunoglobulin Pentaglobin; test: as above

IgM of the IgM/IgA-enriched immunoglobulin Pentaglobin, sequence (P01871 whole entry): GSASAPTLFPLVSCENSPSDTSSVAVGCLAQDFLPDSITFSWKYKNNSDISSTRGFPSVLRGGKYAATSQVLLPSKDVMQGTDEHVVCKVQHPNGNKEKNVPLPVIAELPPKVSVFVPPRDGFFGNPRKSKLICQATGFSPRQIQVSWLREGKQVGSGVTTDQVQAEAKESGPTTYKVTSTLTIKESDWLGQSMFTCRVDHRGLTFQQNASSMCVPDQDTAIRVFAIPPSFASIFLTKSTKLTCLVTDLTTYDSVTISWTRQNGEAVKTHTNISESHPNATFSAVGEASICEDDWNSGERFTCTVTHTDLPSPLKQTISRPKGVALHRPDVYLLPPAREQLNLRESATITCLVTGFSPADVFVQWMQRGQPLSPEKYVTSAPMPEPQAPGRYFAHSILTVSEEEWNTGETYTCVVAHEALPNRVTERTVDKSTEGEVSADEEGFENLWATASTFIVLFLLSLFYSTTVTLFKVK
IgA of the IgM/IgA-enriched immunoglobulin Pentaglobin, sequence (P01876 whole entry): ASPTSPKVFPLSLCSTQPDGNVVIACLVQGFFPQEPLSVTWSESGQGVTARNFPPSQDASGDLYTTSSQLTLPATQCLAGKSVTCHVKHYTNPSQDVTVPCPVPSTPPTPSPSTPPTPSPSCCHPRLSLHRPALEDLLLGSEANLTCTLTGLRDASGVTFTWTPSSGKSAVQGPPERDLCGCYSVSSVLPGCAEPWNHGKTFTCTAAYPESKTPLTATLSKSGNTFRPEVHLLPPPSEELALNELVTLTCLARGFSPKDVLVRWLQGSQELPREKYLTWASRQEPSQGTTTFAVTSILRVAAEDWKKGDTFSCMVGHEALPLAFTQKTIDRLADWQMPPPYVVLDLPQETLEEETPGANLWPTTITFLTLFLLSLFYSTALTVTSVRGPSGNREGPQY

stoichiometry N [1]	stoichiometry N [2]	Substance
2	–	IgA of the IgM/IgA-enriched immunoglobulin Pentaglobin (natural protein)
–	5	IgM of the IgM/IgA-enriched immunoglobulin Pentaglobin (natural protein)
